Measurements reported in paper PMC12797002, “Hydrophobic residues in the α‐synuclein NAC domain drive seed‐competent fibril formation and are targeted by peptide inhibitors” (The Febs Journal, 2025).
Entries after “also recorded” stand apart in the source; their conditions may differ.

How the values were obtained:
[1] = ThT aggregation kinetics and AFM/TEM imaging of NAC peptides; assay type: physicochemical; settings: for aggregation (ThT kinetics) / lag time of aggregation compared with NAC35: 100 μM peptide, n = 3; for aggregation (ThT kinetics): 15 μM ThT, 1× PBS pH 7.2, 37 °C, 1000 rpm, 48–72 h, ThT fluorescence; for lag time of aggregation compared with NAC35: ThT readings 0–10 h, Boltzmann sigmoidal fit, PBS pH 7.2, 37 °C; for aggregate morphology (AFM and TEM): after 48 h of aggregation; for Key observations: fibril formation and stability / Key observations: nucleation: summary table
Experimental: NAC peptides stored at −80 °C were thawed on ice and centrifuged at 12 100 g for 45 s. A reaction mixture (40 μL) was prepared on ice containing 100 μM NAC peptide, either alone or in combination with inhibitor peptides at a 1 : 2 molar ratio, along with 15 μM ThT (Sigma‐Aldrich, Burlington, MA, USA; Cat. # T3516‐5G) in 1× PBS (pH 7.2). This mixture was then dispensed into a clear‐bottom, black 384‐well plate (Revvity, Waltham, MA, USA), and the plate was sealed with a TopSealA‐PLUS (Revvity) to prevent evaporation.
The aggregation kinetics was monitored on an EnSpire Multimode Plate Reader (Revvity) at 37 °C with a constant agitation of 1000 rpm. To prevent condensation in the assay plate, the upper heater temperature in the plate reader was set to 2 °C higher than the lower heater temperature. ThT (Ex: 460–490 nm, Em: 500–550 nm) fluorescence readings were recorded every 5–10 min for 48–72 h. The aggregation lag time was determined by fitting a Boltzmann sigmoidal equation to the fluorescence data in OriginPro 2024 (OriginLab Corporation, Northampton, MA, USA).
NAC peptide aggregates, collected after 48 h of the aggregation assay, were dropped onto a freshly cleaved 10 mm AFM mica disc (Ted Pella, Inc., Redding, CA, USA) and air‐dried for 10 min at room temperature. The mica discs were washed five times with deionized water and then dried for 10–15 min at room temperature. AFM imaging was performed as described, using the […] AIR probe (tip radius: 2 nm, spring constant: 0.4 N/m).
Samples were dropped on glow‐discharged carbon‐coated copper grids and negatively stained with 2% uranyl acetate. Electron microscopy was performed on a Tecnai G2 F20 microscope (FEI Technologies, Hillsboro, OR, USA) with an Eagle 4K CCD camera (FEI Technologies) or a CM100 TWIN Transmission Electron Microscope (Philips, Amsterdam, Netherlands) equipped with a side‐mounted Veleta Camera (Olympus, Tokyo, Japan) and processed in the iTEM software suite (Olympus). After bringing the images to 2048 × 2048 pixels, the pixel size at the specimen level was 1.14 nm. Approximately 20 micrographs of each specimen were recorded and evaluated.

[2] = ANS assay of NAC peptide aggregation at different pH; assay type: physicochemical; settings: ANS fluorescence, 100 μM peptide; for lag time at acidic pH compared with neutral pH / lag time at basic pH compared with neutral pH: 40 μM ANS, 1× PBS, 1000 rpm, n = 3; for lag time at acidic pH compared with neutral pH: acidic (pH 4.5 in legend, pH 4.2 in method) vs pH 7.2, 37 °C; for lag time at basic pH compared with neutral pH: pH 8.0 vs pH 7.2, 37 °C; for aggregation on altering pH: acidic, neutral (pH 7.2) and basic (pH 8.0) PBS, 37 °C
Experimental: A 40‐μL reaction mixture was prepared on ice containing 100 μM NAC peptides and 40 μM 8‐anilino‐1‐naphthalenesulfonic acid (ANS; Sigma‐Aldrich, Cat. # A1028‐5G) in 1× PBS at pH 4.2, 7.2, or 8.0. The aggregation kinetics were monitored on an EnSpire Multimode Plate Reader (Revvity) at 37 °C with a constant agitation of 1000 rpm. ANS fluorescence readings (Ex: 390 nm, Em: 475 nm) were recorded every 5–10 min for 48–72 h. The lag time of aggregation was determined by fitting a Boltzmann sigmoidal equation, as described in the previous section.

[3] = UV-Vis spectrophotometric analysis of soluble and insoluble fractions; assay type: physicochemical; settings: 100 μM peptide, 48 h incubation without ThT, 65 000 g 1 h, 1× PBS pH 7.2, spectra 400–600 nm; means of 3 replicates
Experimental: To fractionate aggregated samples (recombinant αSyn or NAC peptides), 20% of the aggregation mixture was set aside as the ‘total fraction’. The remaining sample was centrifuged at room temperature at 65 000 g for 1 h. The supernatant was collected as the ‘soluble fraction’ and transferred to a fresh tube. The pellet was resuspended in 80 μL of 1× PBS (pH 7.2) and centrifuged at 65 000 g for 1 h. After removing the supernatant, the pellet was resuspended in 8 μL of 1× PBS (pH 7.2), yielding a 10× concentrated ‘insoluble fraction’.
NAC peptides (100 μM) were incubated without ThT for 48 h to allow aggregation. The resulting mixtures were centrifuged at 65 000 g for 1 h to separate the soluble and insoluble fractions, as outlined above. Insoluble fractions were resuspended in an equal volume of 1× PBS (pH 7.2) as the soluble fractions. UV–Vis absorption spectra were recorded from 400 to 600 nm using an EnSpire Multimode Plate Reader (Revvity) with a resolution of 10 nm.

[4] = biological target: T1, monomeric αSyn (Homo sapiens, UniProt P37840, A53T); experiment: In vitro seeding assay with preformed fibrils (ThT, dot blot, Coomassie gel); assay type: biochemical; settings: for seeding of αSyn aggregation (effect on lag time) in words: 100 μM αSyn + 25 μM preformed fibrils, ThT; for αSyn dimerization (dimer-to-monomer band ratio, Coomassie gel): insoluble fractions of seeded αSyn, n = 2; for Key observations: seeding of αSyn aggregation: summary table
T1 construct: made in house
Experimental: For the in vitro seeding assay, αSyn (100 μM), NAC35 (100 μM), NAC16 (200 μM), and NAC11 (200 μM) peptides were aggregated without ThT for 72–96 h. Fibril formation was confirmed by mixing 10 μL of the aggregated sample with 15 μM ThT and measuring fluorescence using an EnSpire Multimode Plate Reader (Revvity). Aggregates were then centrifuged to separate insoluble fractions as described above.
αSyn (100 μM) was incubated with 25 μM insoluble fractions (preformed fibrils) of αSyn, NAC35, NAC16, and NAC11 in a 100–150 μL volume per well of a 96‐well ViewPlate in the presence of 50 μM ThT. The aggregation kinetics were monitored on an EnSpire Multimode Plate Reader (Revvity) at 37 °C with a constant agitation of 1000 rpm. ThT fluorescence was recorded every 5–10 min for over 60–65 h. After aggregation, the contents of each well were collected, and insoluble fractions were isolated by centrifugation. These fractions were subsequently analyzed using dot blot analysis and Coomassie gel staining.
The samples were mixed with 2× Laemmli buffer [62.5 mM Tris/HCl (pH 6.8), 25% (w/v) glycerol, 2% SDS, and 0.01% Bromophenol Blue, supplemented with 5% (v/v) 2‐mercaptoethanol] and boiled at 95 °C for 5 min. The samples were then subjected to electrophoresis using Mini‐PROTEAN TGX 4–20% Precast gels (Bio‐Rad, Hercules, CA, USA, Cat. # 4561095) in Tris/glycine/SDS running buffer (Bio‐Rad). Gels were fixed in 50% methanol (v/v) and 10% acetic acid (v/v) for 1 h, stained with Coomassie Brilliant Blue R‐250 Staining Solution (Bio‐Rad, Cat. # 1610436EDU) for 12 h at 4 °C with gentle agitation, and destained in deionized water. Gel images were acquired using a ChemiDoc MP imaging system (Bio‐Rad), and densitometry was performed using the IMAGEJ software (RRID: SCR_003070; Bethesda, MD, USA).
Five μL of the sample (2.5 μL first, allowed to dry completely, then another 2.5 μL) was spotted onto a nitrocellulose membrane (Bio‐Rad, Cat. # 1620147), pre‐divided into uniform circular grids, and allowed to dry for 10 min at room temperature. The membrane was blocked for 1 h with 5% bovine serum albumin (BSA) in 1× Tris‐buffered saline with 0.05% Tween® 20 (TBST), followed by 3× washes with TBST. The membrane was then incubated for 1 h with anti‐α‐Synuclein (D37A6) rabbit monoclonal antibody (Cell Signaling Technology, Inc., Danvers, MA, USA, Cat. # 4179, RRID: AB_1904156), which recognizes an epitope surrounding Glu105 in the C‐terminal region of αSyn, and was used at a 1 : 2000 dilution in 5% BSA/TBST. After 3× washes with TBST, the blot was incubated with Alexa Fluor™ 647 Goat anti‐Rabbit IgG (Thermo Fisher Scientific; Cat. # A‐21245) at a 1 : 5000 dilution for 1 h. The blot was imaged using the ChemiDoc MP imaging system (Bio‐Rad), and densitometry was performed using IMAGEJ.

| Substance | aggregation (ThT kinetics) [1] | lag time of aggregation compared with NAC35 [1] | aggregate morphology (AFM and TEM) [1] | Key observations: fibril formation and stability [1] | Key observations: nucleation [1] | lag time at acidic pH compared with neutral pH [2] | lag time at basic pH compared with neutral pH [2] | solubility: UV–Vis absorption of soluble and insoluble fractions [3] | seeding of αSyn aggregation (effect on lag time) in words [4] | αSyn dimerization (dimer-to-monomer band ratio, Coomassie gel) [4] | Key observations: seeding of αSyn aggregation [4] | aggregation on altering pH [2] | insoluble fraction of seeded αSyn (dot blot) ([4]; αSyn aggregated for 72 h with preformed fibrils, n = 3) |
| --- | --- | --- | --- | --- | --- | --- | --- | --- | --- | --- | --- | --- | --- |
| NAC11: truncated NAC peptide corresponding to αSyn 68–78, the minimal toxic core (GAVVTGVTAVA) | readily underwent aggregation | shorter lag time of aggregation than NAC35 | dense, sticky bundles lacking elongated tangles | forms unstable fibrils prone to precipitation | Rapid nucleation | longer lag times | longer lag times | clear increase in absorbance in the insoluble fraction | fail to seed αSyn aggregation | did not promote dimerization or aggregation | lacks seeding ability | – | – |
| NAC8: shortest NAC peptide, eight residues, corresponding to αSyn 72–79 (TGVTAVAQ) | did not aggregate | – | no fibrillar or aggregated structures were formed | No nucleation or fibril formation observed | No nucleation or fibril formation observed | – | – | indistinguishable spectra for soluble and insoluble fractions; also recorded: remained fully soluble | – | – | – | did not induce | – |
| NAC35: peptide of the entire NAC domain, corresponding to αSyn 61–95 | readily underwent aggregation | – | elongated fibrils with clumped tangles | forms robust fibrils with enhanced stability | Slow nucleation | shortened the lag time | increased it | clear increase in absorbance in the insoluble fraction | significantly shortened the lag time | significantly increased αSyn dimerization | effective seeding of αSyn aggregation | – | increased insoluble fractions |
| NAC17: truncated NAC peptide corresponding to αSyn 79–95 (QKTVEGAGSIAAATGFV) | did not aggregate | – | no fibrillar or aggregated structures were formed | No nucleation or fibril formation observed. | No nucleation or fibril formation observed. | – | – | indistinguishable spectra for soluble and insoluble fractions; also recorded: remained fully soluble | – | – | – | did not induce | – |
| NAC16: truncated NAC peptide corresponding to αSyn 63–78 (VTNVGGAVVTGVTAVA) | readily underwent aggregation | shorter lag time of aggregation than NAC35 | elongated fibrils with clumped tangles | moderately stable fibrils | Rapid nucleation | longer lag times | longer lag times | clear increase in absorbance in the insoluble fraction | fail to seed αSyn aggregation | did not promote dimerization or aggregation | lacks seeding ability | – | – |
| NAC12: truncated NAC peptide corresponding to αSyn 71–82 (VTGVTAVAQKTV) | did not aggregate | – | no fibrillar or aggregated structures were formed | No nucleation or fibril formation observed | No nucleation or fibril formation observed | – | – | indistinguishable spectra for soluble and insoluble fractions; also recorded: remained fully soluble | – | – | – | did not induce | – |
